Read-outs that look alike come from different tables or passages of the source. Residues, ends and D or L forms follow the SMILES beside them.
Experiments:
[1] = test system: 120 GPCR targets, including all available orphan receptors and 27 known class A peptide receptors; assay: Peptide library screen, β-arrestin recruitment (Tango, fold change, 10 μM); assay type: cell-based, human; details: for Active at: (activity in b-arrestin recruitment assays): Tango, receptor(s) at which the known library peptide was active, among its known GPCR target(s), validated pairings
Method: The peptide library was additionally screened against 120 GPCR targets in parallel, including all available orphan receptors and 27 known class A peptide receptors using the Tango assay platform ([Kroeze et al., 2015]). Briefly, HTLA cells (a HEK293 cell line stably expressing a tTA-dependent luciferase reporter and a β-arrestin2-TEV fusion gene) were plated 10,000 cells/well in poly-L-lysine–coated clear-bottom white 384-well plates in DMEM supplemented with 10% FBS, 100 U/ml penicillin and 100 μg/ml streptomycin, 2 μg/ml puromycin and 100 μg/ml hygromycin B. 24 hr later, cells were transfected with Tango GPCR constructs using the calcium phosphate method ([Jordan et al., 1996]). The next day, culture medium was changed to DMEM + 1% dFBS and 10 μM peptides were added for overnight stimulation. Bright-Glo solution (Promega) was incubated for 15–20 min at room temperature, and luminescence was counted using a Trilux luminescence counter (Wallac).

GPR1 = target: T1, GPR1 (Homo sapiens, UniProt P46091); assay: β-arrestin recruitment (Tango), validation; assay type: cell-based; parameters: host or cells: HTLA cells (HEK293-derived)
T1 sequence (P46091 1-355): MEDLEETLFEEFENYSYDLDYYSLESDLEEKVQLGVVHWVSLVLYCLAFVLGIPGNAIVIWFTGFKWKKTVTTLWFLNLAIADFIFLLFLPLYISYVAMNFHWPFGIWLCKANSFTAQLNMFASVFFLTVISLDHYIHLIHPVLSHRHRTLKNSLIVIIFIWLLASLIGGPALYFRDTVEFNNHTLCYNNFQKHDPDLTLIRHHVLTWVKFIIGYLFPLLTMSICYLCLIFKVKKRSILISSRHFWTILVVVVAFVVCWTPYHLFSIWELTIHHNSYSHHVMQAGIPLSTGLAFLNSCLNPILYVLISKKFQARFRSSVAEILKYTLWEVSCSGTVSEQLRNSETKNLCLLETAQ

human GPCRs = target: human GPCRs; parameters: method as in Guide to Pharmacology database; details: max reported value, ref Guide to Pharmacology database, cited from earlier work; for pEC50_value: receptor XCR1 (xcr1_human, P46094)
Text: Supplement mmc1.xlsx, sheet "HumanGPCRLigands" | column: pKi_value; pKd_value; pEC50_value; pIC50_value

[2] = receptor RXFP2 (rxfp2_human, Q8WXD0)
[3] = receptor CCR5 (ccr5_human, P51681)
[4] = receptor CCR3 (ccr3_human, P51677)
[5] = receptor CCR1 (ccr1_human, P32246)
[6] = receptor CCR4 (ccr4_human, P51679)
[7] = receptor PROKR1 (pkr1_human, Q8TCW9)
[8] = receptor PROKR2 (pkr2_human, Q8NFJ6)

Molecule: CYFQNCPRG (disulfide) [Peptide 44]
- Active at: (activity in b-arrestin recruitment assays) [1]: V1a V1b V2 OT

Molecule: SYSMEHFRWGKPV [Peptide 93]
- Active at: (activity in b-arrestin recruitment assays) [1]: MC4R

Molecule: YGGFMTSEKSQTPLVTLFKNAIIKNAYKKGE [Peptide 182]
- Active at: (activity in b-arrestin recruitment assays) [1]: kappa, mu

Molecule: VPNLPQRF [Peptide 29]
- Active at: (activity in b-arrestin recruitment assays) [1]: NPFF1

Molecule: WYKPAAGHSSYSVGRAAGLLSGL [Peptide 152]
- Active at: (activity in b-arrestin recruitment assays) [1]: NPBW1

Molecule: FGGFTGARKSARKLANQ [Peptide 120]
- Active at: (activity in b-arrestin recruitment assays) [1]: NOP

Molecule: CC(C)C[C@H](NC(=O)[C@H](CCCNC(=N)N)NC(=O)[C@H](CC(=O)O)NC(=O)[C@H](CC(C)C)NC(=O)[C@@H]1CCCN1C(=O)[C@H](CO)NC(=O)CNC(=O)[C@H](Cc1ccccc1)NC(=O)CNC(=O)[C@H](CO)NC(=O)[C@H](Cc1ccccc1)NC(=O)[C@H](CO)NC(=O)[C@H](CCCNC(=N)N)NC(=O)[C@@H](N)CCCCN)C(=O)N[C@@H](CO)C(=O)N[C@@H](C)C(=O)NCC(=O)N[C@@H](CO)C(=O)N[C@H](C(=O)N[C@@H](CC(=O)O)C(=O)N[C@@H](Cc1c[nH]cn1)C(=O)N[C@@H](CCCCN)C(N)=O)C(C)C [Peptide 141] (H-KRSFSGFGSPLDRLSAGSVDHK-NH2)
- EC50 (GPR1; HTLA cells transiently transfected, overnight stimulation, luciferase, mean ± SEM of 3-4 independent experiments in triplicate, read-out: pEC50, β-arrestin recruitment (Tango), GPR1 (converted)): 2510 nM

Molecule: YGGFLRKYP [Peptide 46]
- Active at: (activity in b-arrestin recruitment assays) [1]: Kappa

Molecule: ILQRGSGTAAVDFTKKDHTATWGRPFFLFRPRN [Peptide 195]
- Active at: (activity in b-arrestin recruitment assays) [1]: NMUR1, NMUR2
- Confirmation of known target in Tango ([1]; repeat hitters of the peptide library screen, the value names the known receptor(s) confirmed in the β-arrestin recruitment (Tango) screen): NMUR1

Molecule: DEGPYRMEHFRWGSPPKD [Peptide 126]
- Active at: (activity in b-arrestin recruitment assays) [1]: MC4R

Molecule: CYIQNCPLG (disulfide) [Peptide 45]
- Active at: (activity in b-arrestin recruitment assays) [1]: V1a V2 OT

Molecule: KRSFSGFGSPLDRLSAGSVDHK [141 original]
- b-arrestin recruitment assays (Tango) Emax (fold change) (GPR1; receptor GPR1, mean, SEM and n (2-3)): 14.4 fold change

B1: INSL3 (protein, UniProt P51460 21-55; P51460 106-131, looked up)
Insulin-like 3 B chain: LGPAPTPEMREKLCGHHFVRALVRVCGGPRWSTEA
Insulin-like 3 A chain: AAATNPARYCCLSGCTQQDLLTLCPY
- pKd_value (human GPCRs; [2]): 10.4
- pKi_value (human GPCRs; [2]): 9.7

B2: CCL8 (protein, UniProt P80075 24-99, looked up)
C-C motif chemokine 8: QPDSVSIPITCCFNVINRKIPIQRLESYTRITNIQCPKEAVIFKTKRGKEVCADPKERWVRDSMKHLDQIFQNLKP
- pIC50_value (human GPCRs; receptor CCR2 (ccr2_human, P41597)): 8.6
- pKi_value (human GPCRs; [3]): 9.3

B3: CCL1 (protein, UniProt P22362 24-96, looked up)
C-C motif chemokine 1: KSMQVPFSRCCFSFAEQEIPLRAILCYRNTSSICSNEGLIFKLKRGKEACALDTVGWVQRHRKMLRHCPSKRK
- pIC50_value (human GPCRs; receptor CCR8 (ccr8_human, P51685)): 9.8

B4: CXCL7 (protein, UniProt P02775 59-128, looked up)
Neutrophil-activating peptide …: AELRCMCIKTTSGIHPKNIQSLEVIGKGTHCNQVEVIATLKDGRKICLDPDAPRIKKIVQKKLAGDESAD
modifications: Neutrophil-activating peptide 2
- pIC50_value (human GPCRs; receptor CXCR2 (cxcr2_human, P25025)): 9.3

B5: CXCL16 (protein, UniProt Q9H2A7 30-254, looked up)
C-X-C motif chemokine 16: NEGSVTGSCYCGKRISSDSPPSVQFMNRLRKHLRAYHRCLYYTRFQLLSWSVCGGNKDPWVQELMSCLDLKECGHAYSGIVAHQKHLLPTSPPISQASEGASSDIHTPAQMLLSTLQSTQRPTLPVGSLSSDKELTRPNETTIHTAGHSLAAGPEAGENQKQPEKNAGPTARTSATVPVLCLLAIIFILTAALSYVLCKRRRGQSPQSSPDLPVHYIPVAPDSNT
- pKd_value (human GPCRs; receptor CXCR6 (cxcr6_human, O00574)): 9

B6: CCL24 (protein, UniProt O00175 27-119, looked up)
C-C motif chemokine 24: VVIPSPCCMFFVSKRIPENRVVSYQLSSRSTCLKAGVIFTTKKGQQFCGDPKQEWVQRYMKNLDAKQKKASPRARAVAVKGPVQRYPGNQTTC
- pIC50_value (human GPCRs; [4]): 9.4

B7: CCL23 (protein, UniProt P55773 22-120, looked up)
C-C motif chemokine 23: RVTKDAETEFMMSKLPLENPVLLDRFHATSADCCISYTPRSIPCSLLESYFETNSECSKPGVIFLTKKGRRFCANPSDKQVQVCMRMLKLDTRIKTRKN
- pKi_value (human GPCRs; [5]): 8.9

B8: CCL4 (protein, UniProt P13236 24-92, looked up)
C-C motif chemokine 4: APMGSDPPTACCFSYTARKLPRNFVVDYYETSSLCSQPAVVFQTKRSKQVCADPSESWVQEYVYDLELN
- pKi_value (human GPCRs; [5]): 7.8
- pKi_value (human GPCRs; [3]): 9.6

B9: CCL22 (protein, UniProt O00626 25-93, looked up)
C-C motif chemokine 22: GPYGANMEDSVCCRDYVRYRLPLRVVKHFYWTSDSCPRPGVVLLTFRDKEICADPRVPWVKMILNKLSQ
- pIC50_value (human GPCRs; [6]): 9.2

B10: CCL17 (protein, UniProt Q92583 24-94, looked up)
C-C motif chemokine 17: ARGTNVGRECCLEYFKGAIPLRKLKTWYQTSEDCSRDAIVFVTVQGRAICSDPNNKRVKNAVKYLQSLERS
- pIC50_value (human GPCRs; [6]): 8.7

B11: CCL14 (protein, UniProt Q16627 20-93, looked up)
C-C motif chemokine 14: TKTESSSRGPYHPSECCFTYTTYKIPRQRIMDYYETNSQCSKPGIVFITKRGHSVCTNPSDKWVQDYIKDMKEN
- pKi_value (human GPCRs; [5]): 7.4
- pKi_value (human GPCRs; [3]): 7.2

B12: CCL15 (protein, UniProt Q16663 22-113, looked up)
C-C motif chemokine 15: QFTNDAETELMMSKLPLENPVVLNSFHFAADCCTSYISQSIPCSLMKSYFETSSECSKPGVIFLTKKGRQVCAKPSGPGVQDCMKKLKPYSI
- pIC50_value (human GPCRs; [5]): 7.9
- pIC50_value (human GPCRs; [4]): 8.6

B13: CCL21 (protein, UniProt O00585 24-134, looked up)
C-C motif chemokine 21: SDGGAQDCCLKYSQRKIPAKVVRSYRKQEPSLGCSIPAILFLPRKRSQAELCADPKELWVQQLMQHLDKTPSPQKPAQGCRKDRGASKTGKKGKGSKGCKRTERSQTPKGP
- pIC50_value (human GPCRs; receptor CCR7 (ccr7_human, P32248)): 9.3

B14: prokineticin-1 (protein, UniProt P58294 20-105, looked up)
Prokineticin-1: AVITGACERDVQCGAGTCCAISLWLRGLRMCTPLGREGEECHPGSHKVPFFRKRKHHTCPCLPNLLCSRFPDGRYRCSMDLKNINF
- pIC50_value (human GPCRs; [7]): 7.6
- pIC50_value (human GPCRs; [8]): 7.3

B15: CX3CL1 (protein, UniProt P78423 25-397, looked up)
Fractalkine: QHHGVTKCNITCSKMTSKIPVALLIHYQQNQASCGKRAIILETRQHRLFCADPKEQWVKDAMQHLDRQAAALTRNGGTFEKQIGEVKPRTTPAAGGMDESVVLEPEATGESSSLEPTPSSQEAQRALGTSPELPTGVTGSSGTRLPPTPKAQDGGPVGTELFRVPPVSTAATWQSSAPHQPGPSLWAEAKTSEAPSTQDPSTQASTASSPAPEENAPSEGQRVWGQGQSPRPENSLEREEMGPVPAHTDAFQDWGPGSMAHVSVVPVSSEGTPSREPVASGSWTPKAEEPIHATMDPQRLGVLITPVPDAQAATRRQAVGLLAFLGLLFCLGVAMFTYQSLQGCPRKMAGEMAEGLRYIPRSCGSNSYVLVPV
- pIC50_value (human GPCRs; receptor CX3CR1 (cx3c1_human, P49238)): 8.9

B16: prokineticin-2 (protein, UniProt Q9HC23 28-129, looked up)
Prokineticin-2: AVITGACDKDSQCGGGMCCAVSIWVKSIRICTPMGKLGDSCHPLTRKNNFGNGRQERRKRKRSKRKKEVPFFGRRMHHTCPCLPGLACLRTSFNRFICLAQK
- pIC50_value (human GPCRs; [7]): 8.4
- pIC50_value (human GPCRs; [8]): 8.2

B17: XCL1 (protein, UniProt P47992 22-114, looked up)
Lymphotactin: VGSEVSDKRTCVSLTTQRLPVSRIKTYTITEGSLRAVIFITKRGLKVCADPQATWVRDVVRSMDRKSNTRNNMIQTKPTGTQQSTNTAVTLTG
- pEC50_value (human GPCRs): 7.3

B18: XCL2 (protein, UniProt Q9UBD3 22-114, looked up)
Cytokine SCM-1 beta: VGSEVSHRRTCVSLTTQRLPVSRIKTYTITEGSLRAVIFITKRGLKVCADPQATWVRDVVRSMDRKSNTRNNMIQTKPTGTQQSTNTAVTLTG
- pEC50_value (human GPCRs): 7.3

— paper PMC6838683, “Discovery of Human Signaling Systems: Pairing Peptides to G Protein-Coupled Receptors” (Cell, 2019)
